Assay results: US20210253718A1, “FRIZZLED5 PROTEIN-BINDING AGENTS” (Modmab Therapeutics Corporation, priority 2016, published 2021)
Numbering of substitutions follows the chain as printed.

T1: FZD10 CRD (Homo sapiens, UniProt Q9ULW2)
T1 construct: 30-156; GPI anchor signal (C); expressed in transfected cells; host or cells: CHO cells, lentiviral pLenti-puro
T1 sequence (Q9ULW2 30-156): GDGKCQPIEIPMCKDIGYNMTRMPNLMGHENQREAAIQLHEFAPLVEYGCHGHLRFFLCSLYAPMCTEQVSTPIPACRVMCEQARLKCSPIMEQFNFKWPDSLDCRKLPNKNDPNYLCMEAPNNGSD

T2: FZD4 CRD (Homo sapiens, UniProt Q9ULV1)
T2 construct: E42-V167; GPI anchor signal (C); expressed in transfected cells; host or cells: CHO cells, lentiviral pLenti-puro
T2 sequence (Q9ULV1 42-167): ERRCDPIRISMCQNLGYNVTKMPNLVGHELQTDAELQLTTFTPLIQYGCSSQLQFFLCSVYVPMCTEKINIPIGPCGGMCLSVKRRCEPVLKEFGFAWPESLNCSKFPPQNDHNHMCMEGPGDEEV

B1: Fab-2911: anti-FZD5 Fab with antibody variable region Fv-2911; CDR SEQ ID NOs: 35, 36, 50, 89, 126, 163 (antibody, V domains shown)
VH: EVQLVESGGGLVQPGGSLRLSCAASGFNIYYSSMHWVRQAPGKGLEWVAYIYPYSGYTSYADSVKGRFTISADTSKNTAYLQMNSLRAEDTAVYYCARYFWWYGFDYWGQGTLVTVSS
VL: DIQMTQSPSSLSASVGDRVTITCRASQSVSSAVAWYQQKPGKAPKLLIYSASSLYSGVPSRFSGSRSGTDFTLTISSLQPEDFATYYCQQGPWYPFTFGQGTKVEIK
B2: Fab-2912: anti-FZD5 Fab with antibody variable region Fv-2912; CDR SEQ ID NOs: 35, 36, 51, 90, 127, 164 (antibody, V domains shown)
VH: EVQLVESGGGLVQPGGSLRLSCAASGFNISYSYIHWVRQAPGKGLEWVASISSSSGYTSYADSVKGRFTISADTSKNTAYLQMNSLRAEDTAVYYCARTVRGSKKPYFSGWAMDYWGQGTLVTVSS
VL: DIQMTQSPSSLSASVGDRVTITCRASQSVSSAVAWYQQKPGKAPKLLIYSASSLYSGVPSRFSGSRSGTDFTLTISSLQPEDFATYYCQQFYFPYLITFGQGTKVEIK
B3: Fab-2914: anti-FZD5 Fab with antibody variable region Fv-2914; CDR SEQ ID NOs: 35, 36, 53, 92, 129, 162 (antibody, V domains shown)
VH: EVQLVESGGGLVQPGGSLRLSCAASGFNIYYSYMHWVRQAPGKGLEWVASIYPSSSSTSYADSVKGRFTISADTSKNTAYLQMNSLRAEDTAVYYCARGAMDYWGQGTLVTVSS
VL: B2 VL with F91W, F93Y, P94G, Y95S
B4: Fab-2898: anti-FZD5 Fab with antibody variable region Fv-2898; CDR SEQ ID NOs: 35, 36, 37, 76, 113, 152 (antibody, V domains shown)
VH: EVQLVESGGGLVQPGGSLRLSCAASGFNIYSYSMHWVRQAPGKGLEWVASIYSSSGSTSYADSVKGRFTISADTSKNTAYLQMNSLRAEDTAVYYCARAVWGLDYWGQGTLVTVSS
VL: DIQMTQSPSSLSASVGDRVTITCRASQSVSSAVAWYQQKPGKAPKLLIYSASSLYSGVPSRFSGSRSGTDFTLTISSLQPEDFATYYCQQWWGYYSLITFGQGTKVEIK
B5: Fab-2909: anti-FZD5 Fab with antibody variable region Fv-2909; CDR SEQ ID NOs: 35, 36, 48, 87, 124, 161 (antibody, V domains shown)
VH: B2 VH with Y31S, I34M
VL: B4 VL with W91S, G93S, Y95H, S96Y
B6: Fab-2926: anti-FZD5 Fab with antibody variable region Fv-2926; CDR SEQ ID NOs: 35, 36, 65, 103, 141, 173 (antibody, V domains shown)
VH: B3 VH with Y31S, A100G, M101L
VL: B4 VL with W92Y, G93H, Y94G, Y95G, I98F
B7: Fab-2913: anti-FZD5 Fab with antibody variable region Fv-2913; CDR SEQ ID NOs: 35, 36, 52, 91, 128, 165 (antibody, V domains shown)
VH: EVQLVESGGGLVQPGGSLRLSCAASGFNISYSSIHWVRQAPGKGLEWVASIYPYSSSTSYADSVKGRFTISADTSKNTAYLQMNSLRAEDTAVYYCARYGYYGLDYWGQGTLVTVSS
VL: B4 VL with W92G, G93V, Y94S, Y95H, S96Y, I98F

System: HPAFII cells
Test: Effect of anti-FZD5 Fabs on proliferation of pancreatic cancer cell lines (percent growth inhibition)
Format: cell-based, human
Conditions: Fab 2 μg/ml
Procedure: (§1) The effect of presently disclosed anti-FZD5 Fabs on proliferation of RNF43 loss-of-function mutant pancreatic cancer cell lines HPAFII, PATU8988S and ASPC-1; and on pancreatic cancer cell line RWP1, was tested at […] and 10 μg/ml.

Row | Molecule | percent growth inhibition, HPAFII 2 μg/ml
1 | B1 | 2.08%
2 | B2 | 7.76%
3 | B3 | −4.97%
4 | B4 | 15.80%
5 | B5 | 2.87%
6 | B6 | −6.88%
7 | B7 | −5.59%

Same assay, conditions: Fab 10 μg/ml

Row | Molecule | percent growth inhibition, HPAFII 10 μg/ml
8 | B2 | −5.41%
9 | B3 | 6.47%
10 | B4 | 21.87%
11 | B5 | −2.57%
12 | B6 | 4.88%
13 | B7 | −28.52%

System: RWP1 cells
Test: as above
Format: cell-based, human
Conditions: Fab 10 μg/ml
Procedure: as §1

Row | Molecule | percent growth inhibition, RWP1 10 μg/ml
14 | B2 | 27.25%
15 | B3 | 78.98%
16 | B4 | 26.93%
17 | B5 | 14.89%
18 | B6 | 40.20%
19 | B7 | 68.29%

System: PATU8988S cells
Test: as above
Format: cell-based, human
Conditions: Fab 10 μg/ml
Procedure: as §1

Row | Molecule | percent growth inhibition, PATU8988s 10 μg/ml
20 | B2 | −25.71%
21 | B3 | −26.59%
22 | B4 | 0.97%
23 | B5 | −16.04%
24 | B6 | −36.54%
25 | B7 | −43.04%

System: ASPC-1 cells
Test: as above
Format: cell-based, human
Conditions: Fab 10 μg/ml
Procedure: as §1

Row | Molecule | percent growth inhibition, ASPC-1 10 μg/ml
26 | B2 | 1.76%
27 | B3 | 38.30%
28 | B4 | 25.15%
29 | B5 | −9.30%
30 | B6 | 24.71%
31 | B7 | −7.73%

System: PATU8988S cells
Test: as above
Format: cell-based, human
Conditions: Fab 2 μg/ml

Row | Molecule | percent growth inhibition, PATU8988s 2 μg/ml
32 | B1 | 8.24%
33 | B2 | 1.11%
34 | B3 | −15.14%
35 | B4 | 4.53%
36 | B5 | −9.95%
37 | B6 | −15.89%
38 | B7 | −15.09%

System: ASPC-1 cells
Test: as above
Format: cell-based, human
Conditions: Fab 2 μg/ml

Row | Molecule | percent growth inhibition, ASPC-1 2 μg/ml
39 | B1 | 3.18%
40 | B2 | 6.93%
41 | B3 | 16.76%
42 | B4 | 11.14%
43 | B5 | −6.84%
44 | B6 | 17.27%
45 | B7 | 2.25%

System: CHO cells not expressing Frizzled CRD
Test: Flow cytometry of anti-FZD5 Fab binding to CHO cells not expressing Frizzled CRD (background)
Conditions: not given
From the text: The binding of anti-FZD5 Fabs to cell surface-expressed Frizzled protein was further determined for each member of the Frizzled family via flow cytometry and immunofluorescence analysis of a panel of 10 CHO cell lines, each ectopically over-expressing the extracellular cysteine-rich domain (CRD) of a different Frizzled protein family member.

Row | Molecule | Median fluorescence, Frizzled CRD overexpressed on CHO cells: None
46 | B1 | 4.53
47 | B2 | 4.49
48 | B3 | 4.37
49 | B4 | 5.38
50 | B5 | 3.4
51 | B7 | 3.85

System: RWP1 cells
Test: Effect of anti-FZD5 Fabs on proliferation of pancreatic cancer cell lines (percent growth inhibition)
Format: cell-based, human
Conditions: Fab 2 μg/ml

Row | Molecule | percent growth inhibition, RWP1 2 μg/ml
52 | B1 | 20.34%
53 | B2 | 15.55%
54 | B3 | 68.03%
55 | B4 | 21.46%
56 | B5 | 12.89%
57 | B6 | 37.95%
58 | B7 | 59.79%

Molecular target: T1, FZD10 CRD
Test: Immunofluorescence of anti-FZD5 Fab binding to CHO cells overexpressing Frizzled CRD
Parameters: key: −: no binding; +: very weak binder; ++: weak binder; +++: good binder; ++++: very good binder
Conditions: not given
Procedure, shortened: (§2)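 CHO lines each stably expressing one human Frizzled CRD as a myc-tagged, GPI-anchored cell-surface cassette (FZD_CRD-MYC-GPI, lentiviral pLenti-puro) were probed with anti-FZD5 Fabs. Binding was read by immunofluorescence, alongside flow cytometry, across the 10-member panel.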

Row | Immunofluorescence binding, Frizzled CRD overexpressed on CHO cells: FZD10 | Molecule
59 | − | B1
60 | − | B2
61 | − | B3
62 | − | B4
63 | − | B5
64 | − | B6
65 | − | B7

Molecular target: T2, FZD4 CRD
Test: as above
Parameters: key: −: no binding; +: very weak binder; ++: weak binder; +++: good binder; ++++: very good binder
Conditions: not given
Procedure, shortened: as §2

Row | Immunofluorescence binding, Frizzled CRD overexpressed on CHO cells: FZD4 | Molecule
66 | − | B1
67 | ++ | B2
68 | − | B3
69 | − | B4
70 | − | B5
71 | − | B6
72 | − | B7

Molecular target: T3, FZD2 CRD (Homo sapiens, UniProt Q14332)
T3 construct: D35-P161; GPI anchor signal (C); expressed in transfected cells; host or cells: CHO cells, lentiviral pLenti-puro
Test: as above
Parameters: key: −: no binding; +: very weak binder; ++: weak binder; +++: good binder; ++++: very good binder
Conditions: not given
Procedure, shortened: as §2

Row | Immunofluorescence binding, Frizzled CRD overexpressed on CHO cells: FZD2 | Molecule
73 | +++ | B1
74 | +++ | B2
75 | +++ | B3
76 | +++ | B4
77 | − | B5
78 | − | B6
79 | +++ | B7
